Article PMC4498735, “Fibulin-1C, C1 Esterase Inhibitor and Glucose Regulated Protein 75 Interact with the CREC Proteins, Calumenin and Reticulocalbin” (PLoS ONE, 2015)

T1: GST-fibulin-1C (UniProt P23142-4 33-683)
T1 construct: fibulin-1C, amino acids 33-683, cloned into pGEX-4T3; the C variant has 683 amino acids; also called recombinant GST-fibulin-1C; source: E. coli, purified (glutathione-sepharose, Superdex 200)
T1 sequence (looked up): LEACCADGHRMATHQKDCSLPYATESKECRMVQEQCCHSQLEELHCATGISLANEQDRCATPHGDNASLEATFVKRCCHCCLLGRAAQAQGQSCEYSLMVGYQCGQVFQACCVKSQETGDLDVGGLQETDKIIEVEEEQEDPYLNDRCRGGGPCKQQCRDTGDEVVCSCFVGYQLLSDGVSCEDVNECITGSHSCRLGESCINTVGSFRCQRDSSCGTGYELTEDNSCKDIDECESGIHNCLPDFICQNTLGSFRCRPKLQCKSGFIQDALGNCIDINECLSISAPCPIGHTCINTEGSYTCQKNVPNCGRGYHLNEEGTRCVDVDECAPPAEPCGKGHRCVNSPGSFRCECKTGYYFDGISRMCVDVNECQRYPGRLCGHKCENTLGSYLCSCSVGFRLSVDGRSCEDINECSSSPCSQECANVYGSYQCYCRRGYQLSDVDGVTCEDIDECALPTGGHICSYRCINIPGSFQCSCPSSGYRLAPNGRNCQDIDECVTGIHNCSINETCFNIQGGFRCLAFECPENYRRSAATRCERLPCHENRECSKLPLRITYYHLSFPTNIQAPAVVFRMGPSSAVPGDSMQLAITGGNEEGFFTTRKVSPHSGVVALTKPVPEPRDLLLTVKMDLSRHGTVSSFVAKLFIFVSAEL

T2: C1 esterase inhibitor (commercial, Calbiochem) (UniProt P05155 23-500)
T2 construct: source: bought: Calbiochem
T2 sequence (looked up): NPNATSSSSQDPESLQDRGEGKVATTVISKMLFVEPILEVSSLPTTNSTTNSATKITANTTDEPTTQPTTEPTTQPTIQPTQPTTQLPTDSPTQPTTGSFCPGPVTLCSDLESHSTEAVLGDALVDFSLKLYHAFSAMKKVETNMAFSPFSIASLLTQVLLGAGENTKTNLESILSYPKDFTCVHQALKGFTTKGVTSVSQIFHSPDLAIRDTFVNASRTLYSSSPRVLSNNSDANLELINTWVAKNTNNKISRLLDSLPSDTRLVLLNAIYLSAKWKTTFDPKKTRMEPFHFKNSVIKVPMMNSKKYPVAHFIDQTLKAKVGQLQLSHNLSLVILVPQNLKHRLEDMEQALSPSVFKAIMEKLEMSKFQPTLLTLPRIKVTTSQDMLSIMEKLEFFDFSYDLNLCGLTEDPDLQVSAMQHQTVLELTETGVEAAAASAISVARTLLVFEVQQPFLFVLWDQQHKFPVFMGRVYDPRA

B1: recombinant reticulocalbin (natural protein)
chain: KPTVRKERVVRPDSELGERPPEDNQSFQYDHEAFLGKEDSKTFDQLSPDESKERLGKIVDRIDSDGDGLVTTEELKLWIKRVQKRYIYDNVAKVWKDYDRDKDEKISWEEYKQATYGYYLGNPAEFHDSSDHHTFKKMLPRDERRFKASDLDGDLTATREEFTAFLHPEEFEHMKEIVVLETLEDIDKNGDGFVDQDEYIADMFSHEDNGPEPDWVLSEREQFNDFRDLNKDGKLDKDEIRHWILPQDYDHAQAEARHLVYESDKNKDEMLTKEEILDNWNMFVGSQATNYGEDLTKNHDEL
modifications: Expressed in E. coli as a GST fusion; GST removed with thrombin. Species and limits are not printed: mouse is inferred because the plasmid came from Dr. Ozawa, whose original reticulocalbin clone was
B2: GST-calumenin (natural protein, UniProt O43852 20-315, looked up)
chain: KPTEKKDRVHHEPQLSDKVHNDAQSFDYDHDAFLGAEEAKTFDQLTPEESKERLGKIVSKIDGDKDGFVTVDELKDWIKFAQKRWIYEDVERQWKGHDLNEDGLVSWEEYKNATYGYVLDDPDPDDGFNYKQMMVRDERRFKMADKDGDLIATKEEFTAFLHPEEYDYMKDIVVQETMEDIDKNADGFIDLEEYIGDMYSHDGNTDEPEWVKTEREQFVEFRDKNRDGKMDKEETKDWILPSDYDHAEAEARHLVYESDQNKDGKLTKEEIVDKYDLFVGSQATDFGEALVRHDEF
notes: source: E. coli, purified (glutathione-sepharose, Superdex 200)
B3: recombinant calumenin (immobilised; construct not told) (natural protein, UniProt O43852 20-315, looked up)
chain: KPTEKKDRVHHEPQLSDKVHNDAQSFDYDHDAFLGAEEAKTFDQLTPEESKERLGKIVSKIDGDKDGFVTVDELKDWIKFAQKRWIYEDVERQWKGHDLNEDGLVSWEEYKNATYGYVLDDPDPDDGFNYKQMMVRDERRFKMADKDGDLIATKEEFTAFLHPEEYDYMKDIVVQETMEDIDKNADGFIDLEEYIGDMYSHDGNTDEPEWVKTEREQFVEFRDKNRDGKMDKEETKDWILPSDYDHAEAEARHLVYESDQNKDGKLTKEEIVDKYDLFVGSQATDFGEALVRHDEF
notes: calumenin; also called immobilised calumenin; source: E. coli, purified

How the values were obtained:
Conditions in all cases: both partners purified
GST-fibulin-1C [1] = target: T1, GST-fibulin-1C; assay: SPR; reticulocalbin immobilised; buffer with EDTA (10 mM Hepes, 150 mM NaCl, 20 mM EDTA and 0.005% Tween 20 pH 7.4)
[2] = target: T3, recombinant GST-grp75 (AAH00478.1) (human, UniProt P38646 47-679); assay: SPR; Biacore 2000/3000, CM5 chip, calumenin, GST-calumenin, reticulocalbin or GST amine-coupled; 25°C; 10 mM HEPES, 150 mM NaCl, 5 mM CaCl2, 1 mM EGTA, 0.005% Tween 20, pH 7.4; 1:1 Langmuir model; apparent KD from koff/kon
T3 construct: also called glucose regulated protein 75; mortalin; source: bought: Abnova (Taipei, Taiwan)

GST-fibulin-1C [3] = target: T1, GST-fibulin-1C; assay: as above
[4] = target: T2, C1 esterase inhibitor (commercial, …); assay: as above

T3 sequence (P38646 47-679): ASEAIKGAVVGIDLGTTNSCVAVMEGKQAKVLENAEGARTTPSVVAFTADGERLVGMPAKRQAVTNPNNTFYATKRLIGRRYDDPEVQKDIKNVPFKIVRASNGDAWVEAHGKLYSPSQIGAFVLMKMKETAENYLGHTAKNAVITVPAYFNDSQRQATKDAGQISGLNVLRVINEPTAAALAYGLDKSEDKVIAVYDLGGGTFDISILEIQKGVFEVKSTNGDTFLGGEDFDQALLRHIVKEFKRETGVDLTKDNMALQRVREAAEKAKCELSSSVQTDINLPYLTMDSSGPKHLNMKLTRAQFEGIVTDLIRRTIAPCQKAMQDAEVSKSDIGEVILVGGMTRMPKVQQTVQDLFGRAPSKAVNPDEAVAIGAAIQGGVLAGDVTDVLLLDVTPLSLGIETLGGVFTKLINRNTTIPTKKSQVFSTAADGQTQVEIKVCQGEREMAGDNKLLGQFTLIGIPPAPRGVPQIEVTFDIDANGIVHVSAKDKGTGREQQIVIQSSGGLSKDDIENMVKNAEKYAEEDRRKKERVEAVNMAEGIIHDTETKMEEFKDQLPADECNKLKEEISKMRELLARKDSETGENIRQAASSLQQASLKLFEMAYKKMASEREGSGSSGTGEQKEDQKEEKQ

Binder	Kd (GST-fibulin-1C [1]) [nM]	Kd [2] [nM]	Kd (GST-fibulin-1C [3]) [nM]	Kd [4] [nM]
B1	~50	~3	~60	~1000
B2			~50	~150
B3		~7		
